Patent US11235004B2, “Lymphocyte cell lines and uses thereof” (Innovative Cellular Therapeutics Holdings, Ltd., priority 2017, dated 2022)

Tests used:
[1] = test system: transduced T cells (ef1a-TK-IRES-rtTA-TRE-hTERT) and non-transduced T cells; test: Ganciclovir (TK suicide switch) cell growth test; format: cell-based, human; conditions: in the presence of GCV
Description: Experimental cells: CD8+CZY-1 SDS-T and NT cell; TK usage: Adult body concentration of 71.45 ng/ml/5000 ng/kg every 24 h injection. In vitro experimental concentration gradients: 357.2 ng/ml, 142.9 ng/ml, 71.45 ng/ml, 35.725 ng/ml, 14.28 ng/ml, 3.6 ng/ml. […] The starting cells were cultured in 200 w cell density of 50 w/ml.
In group three, transduced cells (ef1a-TK-IRES-rtTA-TRE-hTERT) were cultured using media containing Dox (2 μg/ml) and CD19 ECD (1 mg/250,000 CAR T cells). On day 90, various concentrations of GCV was added to the transduced cells. […] DTT cells represent transduced T cells and grew poorly in the presence of GCV.

[2] = test system: CAR T-TSHR cells; test: Culture of CAR T-TSHR cells with soluble TSHR ECD; format: cell-based, human
Excerpt: Primary T cells were transduced with lentiviral vectors encoding a TSHR CAR to obtain modified T cells including CAR T cells expressing anti-TSHR (thereafter “CAR T-TSHR cells”). The modified T cells were frozen and stored for 30 days. Techniques related to freezing T cells and thawing frozen T cells may be found in Levine et al., Molecular Therapy—Methods & Clinical Development, Molecular Therapy, Vol 4, Mar. 17, 2017.
The modified Tcells were thawed and divided into two groups and cultured, respectively. CAR T-TSHR cells in Group 1 were cultured with anti-CD3 & CD28 beads and IL2 for 10 days, while CAR T-TSHR cells in Group 2 were cultured with various concentrations of soluble TSHR (e.g., extracellular domain of TSHR, SEQ ID: 34), anti-CD3 & CD28 beads and IL2. For Group 2, 500,000 CAR T-TSHR cells were cultured with 10, 125, 500 ng/ml of soluble TSHR ECD for 14 days. The T cell population was observed by flow cytometry (FIGS. 8 and 9), and cellular morphology of the T cell population was observed under microscopes (FIG. 10).

[3] = test system: anti-CD19 CAR proliferable T cells; test: Culture of anti-CD19 CAR proliferable T cells with CD19 ECD; format: cell-based, human; conditions: CD19 ECD added to media (1 mg/250,000 CAR T cells)
Excerpt: The primary T cells obtained from a healthy donor were transduced with lentiviral vectors encoding a CD19 CAR (SEQ ID NO: 21) and lentiviral vectors including sequence 1 or 6 as illustrated in FIG. 1 (ef1a-TK-IRES-rtTA-TRE-hTERT: SEQ ID NOs: 1, 2, 3, 4, 5, and 6 in the 5′ to 3′ order or ef1a-rtTA-TRE-hTERT: SEQ ID Nos: 1, 4, 5, and 6 in the 5′ to 3′ order) to obtain transduced T cells including immortalized T cells expressing anti-CD19 CAR (thereafter “anti-CD19 CAR proliferable T cells”) on day one. The anti-CD19 CAR proliferable T cells were divided into various groups and cultured in different media: in the presence of various concentrations of doxycycline (Dox), CD19 extracellular domain (ECD), and/or Ganciclovir (GCV)). In some groups, CD19 ECD (SEQ ID NO: 22) was added to media (1 mg/250,000 CAR T cells), and percentages of cells expressing CD19 CAR increased.

[4] = Survival and growth of various CAR T cells in vitro (FIG. 43); format: cell-based, human; conditions: medium containing CD19 ECD vs no CD19 ECD
Excerpt: In Group 1 (hTert CD19 CAR), the primary T cells obtained from a healthy donor were transduced with a nucleic acid sequence encoding a CD19 CAR and a nucleic acid sequence encoding hTERT. In Group 2 (CD19 CAR), the primary T cells were transduced with the nucleic acid sequence encoding a CD19 CAR. […] CAR T cells are not comprising the nucleic acid sequence encoding hTERT begun to die after about 20 days after cells were transduced with the nucleic acid sequence encoding CAR.

[5] = test system: CAR T cells; test: Long-term culture of CAR T cells (groups A-D) with CD19 antigen, flow cytometry; format: cell-based, human
Excerpt: Various CARs (A, B, C, and D) were constructed by linking a signal peptide (SEQ ID NO: 38), antigen-specific single-chain variable fragment (scFv) (SEQ ID NO: 55 or 21), hinge domain (SEQ ID NOs: 68, 69, 70, or 71), a transmembrane domain (SEQ ID NO: 72, 73, 74, or 75), one or more co-stimulation domains (SEQ ID NO: 3), CD3-ζ (SEQ ID NO: 40), and EGFP, respectively (See FIGS. 12 and 13).
Primary T cells were obtained from the peripheral blood of volunteers. The magnetic beads negative selection was performed using Pan-T kit from Miltenyi Biotec, Inc. to collect T cells from the peripheral blood. On the second day after primary T cell isolation, the collected T cells were infected with lentivirus containing A, B, C, and D CARs, respectively (i.e., Lenti-CARs-IRES-EGFP) to prepare CAR T cells.
On the 14th day after infection, 15,000 CAR T cells of each group were collected, and cultured with 1000 ng/ml CD 19 antigen (i.e., recombinant human CD19 protein. After 15 days of stimulation, the concentration of CD19 was changed to 400 ng/ml. After 20 days of stimulation, the concentration of CD19 was changed to 200 ng/ml and maintained until about 130 days.
The expression of CARs and cell morphology were observed using flow cytometry on day-2, day 15 (FIGS. 14-17), day 17 (FIG. 20), day 65 and day 130 at the beginning of the stimulus. […]

[6] = test system: K562-CD19; test: IFN-gamma release of CAR T19 cells co-cultured with K562-CD19; format: cell-based; conditions: after 24 hours; Group 2 (pre-cultured with CD19) vs Group 1; E:T 1:1 or 1:10
Description: CAR T19 cells of Group 1 and Group 2 were cultured for about one to three weeks using the protocols described above, respectively. CAR T19 cells were then washed and placed into cultures without CD19. These CAR T19 cells were co-cultured with K562-CD19 (E:T 1:1 or 1:10). After 24 hours, 48 hours, and 72 hours, supernatant of the cultures were collected, and IFN-gamma released by the cells were measured to determine functions of CAR T19 cells.

[7] = test system: CAR T19 cells; test: Culture of CAR T19 cells with or without soluble CD19 ECD; format: cell-based, human
Description: The primary T cells were transduced with lentiviral vectors encoding a CD19 CAR to obtain modified T cells including CAR T cells expressing anti-CD19 (thereafter “CAR T19 cells”) on day 1. The modified T cells were divided into two groups and cultured, respectively. CAR T19 cells in Group 1 were cultured with anti-CD3 & CD28 beads and IL2, while CAR T19 cells in Group 2 were cultured with soluble CD19 (e.g., extracellular domain (ECD) of CD19, SEQ ID: 41), anti-CD3 & CD28 beads and IL2. For Group 2, 500,000 CAR T19 cells were cultured with 2 micrograms of soluble CD19 at the starting point, and 4 micrograms of soluble CD19 were used after the CAR T19 cells were grown. The numbers of cells were measured, and ratios between CAR+ cells and the modified T cell population were observed by flow cytometry. The number of CAR copies in the cell population was measured.
T cell phenotypes were further observed. […] Memory cell marker CD62L on CAR+ and CAR-cells were analyzed to determine phenotypes of cultured T cell population.
CAR T19 cells were cultured with CD19 for over 15 days and then were divided into Group 3 and Group 4. CAR T19 cells in Group 3 were continuously cultured with soluble CD19, while CAR T19 cells in Group 4 were cultured without CD19.

## Nc1nc(O)c2ncn(COC(CO)CO)c2n1 [GCV, Ganciclovir]
[1]
  growth of DTT cells (transduced T cells): grew poorly
  growth of NT (non-transduced T cells): continued to grow

## TSHR ECD: soluble TSHR, extracellular domain of TSHR, SEQ ID: 34
[2]; 500 ng/ml soluble TSHR ECD
  ratio (P1) of CAR+ cells and the CAR T-TSHR cells: significantly increased
[2]; as the proportion of added antigen (TSHR-ECD) increased
  cell debris: decreased
[2]; under 500 ng antigen stimulation
  MFI value (CAR fluorescence): increased
[2]; with increasing concentrations of TSHR ECD (10, 125, 500 ng/ml)
  SSC-A dispersible FSC low population: decreased

B1: CD19 ECD: soluble CD19, extracellular domain (ECD) of CD19, SEQ ID: 41 / SEQ ID NO: 22; recombinant human CD19 protein (protein)
chain: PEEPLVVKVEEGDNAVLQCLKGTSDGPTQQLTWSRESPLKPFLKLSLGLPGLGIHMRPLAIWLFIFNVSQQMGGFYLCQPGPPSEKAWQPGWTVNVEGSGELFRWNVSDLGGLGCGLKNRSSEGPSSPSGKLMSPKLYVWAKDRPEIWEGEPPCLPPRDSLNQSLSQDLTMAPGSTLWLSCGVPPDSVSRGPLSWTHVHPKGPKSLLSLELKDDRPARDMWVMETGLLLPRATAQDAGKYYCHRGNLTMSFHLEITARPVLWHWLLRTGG
[3]
  percentages of cells expressing CD19 CAR: increased
[4]
  cell growth rates of hTERT CAR T cells: higher cell growth rates
[5]; CD19-stimulated cells vs parallel untreated
  percentage of CD4 cells: increased
[5]; after CD19 stimulation
  proportion of CAR+EGFP+ cells: increase
[6]
  IFN-gamma released: significantly higher
[7]; CAR T19 cells of Group 2 (cultured with CD19), day 30
  cells showing the phenotype of memory cells (CD62L hi): entire or majority cells
[7]; CD19 ECD added to media vs culturing without CD19 ECD, about day 3 to day 10, non-transduced T cells and CD19 CAR T cells
  cell expansion during the early stage: no apparent increases
[7]; Group 2 (soluble CD19) vs Group 1
  ratio of CAR T19 cells and T cells (flow cytometry): higher
[7]; Group 2 (soluble CD19) vs Group 1 (no CD19)
  copy numbers of CAR T19 cells (qPCR): higher
[7]; Group 2, day 30 after the starting point
  ratio of CAR T19 cells and T cells: continued to rise
[7]; Group 4 (CD19 removed after over 15 days) vs Group 3 (continued soluble CD19), Day 27
  numbers of CAR+ cells: relatively lower
[7]; vs cells cultured without the CD19 ECD, after about day 10
  cell expansion rates of CD19 CAR T cells after the early stage: increased at a higher rate
